# Source: patent US20220259593A1, “CONTROL OF MAMMALIAN GENE DOSAGE USING CRISPR” (The Regents of the University of California, priority 2019, published 2022)
# Numbering of substitutions follows the chain as printed.
# B1: cr809 (nucleic acid)
# guide: GTTTAAGAGCTAAGCTGGAAACAGCATAGCAAGTTTAAATAAGGCTAGTCCGTTATCAACGTGAAAACGTGGAACCGAGTCGGTTCT
# modifications: listed as DNA, chemistry not fully specified
# B2: cr772 (nucleic acid)
# guide: B1 guide with G61T, T62C, A67G, C68A, A73C, T85G
# modifications: listed as DNA, chemistry not fully specified
# B3: cr171 (nucleic acid)
# guide: B1 guide with G61C, A65G, C68G, A73C, T85G
# modifications: listed as DNA, chemistry not fully specified
# B4: cr240 (nucleic acid)
# guide: B1 guide with T56A, G61T, C68A, A73C, T85G
# modifications: listed as DNA, chemistry not fully specified
# B5: cr356 (nucleic acid)
# guide: B1 guide with A59C, G61T, C68A, T70G, G72A, A73C, T85G, C86T
# modifications: listed as DNA, chemistry not fully specified
# B6: cr682 (nucleic acid)
# guide: B1 guide with G44C, C45G, G48C, C50G, G61T, C68A, A73C, T85G
# modifications: listed as DNA, chemistry not fully specified
# B7: cr794 (nucleic acid)
# guide: B1 guide with G61T, C68A, G72C, A73C, C76G, G82C, T85G, C86G
# modifications: listed as DNA, chemistry not fully specified
# B8: cr866 (nucleic acid)
# guide: B1 guide with G61T, C68A, G72T, A73C, A74C, T85G
# modifications: listed as DNA, chemistry not fully specified
# B9: cr728 (nucleic acid)
# guide: B1 guide with A58G, G61T, A65C, C68A, A73C, T85G
# modifications: listed as DNA, chemistry not fully specified
# B10: cr040 (nucleic acid)
# guide: B1 guide with G1A, A6C, G61T, C68A, A73C, T85G
# modifications: listed as DNA, chemistry not fully specified
# B11: cr369 (nucleic acid)
# guide: B1 guide with C60A, G61T, C68A, A73C, T85G
# modifications: listed as DNA, chemistry not fully specified
# B12: cr804 (nucleic acid)
# guide: B1 guide with T34C, G61T, C68A, G72A, A73C, T85G, C86T
# modifications: listed as DNA, chemistry not fully specified
# B13: cr163 (nucleic acid)
# guide: B1 guide with T34C, G61T, C68A, A73C, T85G
# modifications: listed as DNA, chemistry not fully specified
# B14: cr904 (nucleic acid)
# guide: B1 guide with G44T, C50A, C60T, G61T, C68A, G69A, A73C, C75A, G83T, T85G
# modifications: listed as DNA, chemistry not fully specified
# B15: cr485 (nucleic acid)
# guide: B1 guide with A47T, G61T, C68A, G71T, A73C, A78T, T85G
# modifications: listed as DNA, chemistry not fully specified
# B16: cr566 (nucleic acid)
# guide: B1 guide with T34C, G61A, C68T, A73C, T85G
# modifications: listed as DNA, chemistry not fully specified
# B17: cr126 (nucleic acid)
# guide: B1 guide with G33A, A47C, G61T, G63T, C68A, A73C, T85G
# modifications: listed as DNA, chemistry not fully specified
# B18: cr873 (nucleic acid)
# guide: B1 guide with T34C, G61T, T62A, A67T, C68A, A73C, T85G
# modifications: listed as DNA, chemistry not fully specified
# B19: cr493 (nucleic acid)
# guide: B1 guide with T49C, T56C, C57A, G61T, C68A, A73C, T85G
# modifications: listed as DNA, chemistry not fully specified
# B20: cr385 (nucleic acid)
# guide: B1 guide with G61T, C68A, A73C, A74C, C75A, G77C, C81G, G83T, T84G, T85G
# modifications: listed as DNA, chemistry not fully specified
# B21: cr460 (nucleic acid)
# guide: B1 guide with C45G, G48C, G61T, C68A, A73C, A74T, C76A, G82T, T84A, T85G
# modifications: listed as DNA, chemistry not fully specified
# B22: cr799 (nucleic acid)
# guide: B1 guide with C51T, G61T, C68A, A73C, T85G
# modifications: listed as DNA, chemistry not fully specified
# B23: cr148 (nucleic acid)
# guide: B1 guide with T34C, G61T, C68A, A73C, A74G, T84C, T85G
# modifications: listed as DNA, chemistry not fully specified
# B24: cr399 (nucleic acid)
# guide: B1 guide with G61T, C68A, A73C, G82C, T85G
# modifications: listed as DNA, chemistry not fully specified
# B25: cr920 (nucleic acid)
# guide: B1 guide with A55G, T56A, A58T, G61T, C68A, A73C, T85G
# modifications: listed as DNA, chemistry not fully specified
# B26: cr770 (nucleic acid)
# guide: B1 guide with T34C, G61T, C68A
# modifications: listed as DNA, chemistry not fully specified
# B27: cr668 (nucleic acid)
# guide: B1 guide with C60G, G61T, C68A, A73C, T85G
# modifications: listed as DNA, chemistry not fully specified
# B28: cr758 (nucleic acid)
# guide: B1 guide with T34C, T53C, G61T, C68A, A73C, T85G
# modifications: listed as DNA, chemistry not fully specified
# B29: cr425 (nucleic acid)
# guide: B1 guide with A59T, G61C, C68T, T70C, A73C, T85G
# modifications: listed as DNA, chemistry not fully specified
# B30: cr071 (nucleic acid)
# guide: B1 guide with A6C, A8G, G61T, C68A, A73C, T85G
# modifications: listed as DNA, chemistry not fully specified
# B31: cr165 (nucleic acid)
# guide: B1 guide with G43A, C51T, G61T, T62C, A67G, C68A, G72T, A73C, T85G, C86A
# modifications: listed as DNA, chemistry not fully specified
# B32: cr318 (nucleic acid)
# guide: B1 guide with A42T, G61T, A65T, C68A, A73C, T85G
# modifications: listed as DNA, chemistry not fully specified
# B33: cr177 (nucleic acid)
# guide: B1 guide with T40G, G61T, C68A, A73C, T85G
# modifications: listed as DNA, chemistry not fully specified
# B34: cr736 (nucleic acid)
# guide: B1 guide with T34A, G61T, C68A, A73C, T85G, T87A
# modifications: listed as DNA, chemistry not fully specified
# B35: cr124 (nucleic acid)
# guide: B1 guide with A32T, A42T, G61T, C68A, A73C, T85G
# modifications: listed as DNA, chemistry not fully specified
# B36: cr775 (nucleic acid)
# guide: B1 guide with A31G, G33T, G61T, C68A, A73C, T85G
# modifications: listed as DNA, chemistry not fully specified
# B37: cr486 (nucleic acid)
# guide: B1 guide with G61T, C68A, G72A, C76T, G82A, C86T
# modifications: listed as DNA, chemistry not fully specified
# B38: cr721 (nucleic acid)
# guide: B1 guide with T53C, C57T, G61T, C68A, A73C, G79A, T85G
# modifications: listed as DNA, chemistry not fully specified
# B39: cr405 (nucleic acid)
# guide: B1 guide with G61T, C68A, G72T, A73C, C75G, G77A, C81T, G83C, T85G, C86A
# modifications: listed as DNA, chemistry not fully specified
# B40: cr868 (nucleic acid)
# guide: B1 guide with T36C, G61T, C68A, A73C, T85G
# modifications: listed as DNA, chemistry not fully specified
# B41: cr955 (nucleic acid)
# guide: B1 guide with G48A, G61T, C68A, A73C, T85G
# modifications: listed as DNA, chemistry not fully specified
# System: K562 CRISPRi cells
# Assay: Constant region variant library pooled growth screen, K562
# Format: cell-based, human
# Conditions: sgRNA constant region variants; activity relative to the original, un-modified constant region cr995
# In short: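 Relative activity expresses each targeting sequence:constant region pair's phenotype over that of the unmodified constant region. Pooled growth screen ran in K562 CRISPRi cells in duplicate spinner-flask replicates, with puromycin selection and 4–8 days' growth at >2000× coverage; library paired variants with 36 targeting sequences.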
row,Molecule,Mean relative activity
1,B1,1.042
2,B2,1.099
3,B3,1.044
4,B4,1.046
5,B5,1.042

# Same assay, conditions: sgRNA constant region variants; relative to the original, un-modified constant region cr995; CRISPRi
row,Molecule,Mean relative activity
1,B6,0.4794
2,B7,0.411
3,B8,0.4434
4,B9,0.4155
5,B10,0.4233
6,B11,0.4754
7,B12,0.4025
8,B13,0.4662
9,B14,0.4677
10,B15,0.4419
11,B16,0.4299
12,B17,0.4034
13,B18,0.4546
14,B19,0.4736
15,B20,0.4186
16,B21,0.4381
17,B22,0.4031
18,B23,0.4276

row,Molecule,Mean relative activity
1,B24,0.4727
2,B25,0.4567
3,B26,0.4771
4,B27,0.4445
5,B28,0.4614
6,B29,0.4409
7,B30,0.475
8,B31,0.4224
9,B32,0.4269
10,B33,0.4771
11,B34,0.4208
12,B35,0.4757
13,B36,0.4052
14,B37,0.4409
15,B38,0.4696
16,B39,0.4582
17,B40,0.4517
18,B41,0.4541
